Test results from paper PMC7026264, “Crystal structures of N-terminal WRKY transcription factors and DNA complexes”.

Columns and labels:
AtWRKY1-N [1] = target: T1, AtWRKY1-N (Arabidopsis, UniProt Q9SI37 108-169); assay: ITC; ITC: 25 mM HEPES pH 7.0, 100 mM NaCl, 20 C, 0.25 mM protein into 0.026 mM DNA; EMSA: 25 mM HEPES pH 7.0, 100 mM NaCl, 5% glycerol, 6 pmol DNA in 6 ul, 4 C 20 min; settings: protein: recombinant; tags: C-terminal His; blunt
AtWRKY1-C = AtWRKY1-C (Arabidopsis, UniProt Q9SI37 301-366); assay: as above; settings: protein: recombinant; tags: C-terminal His; blunt
AtWRKY1 101-339 = AtWRKY1 101-339 (Arabidopsis, UniProt Q9SI37-2 101-339); assay: ITC; N=0.5, two DNA per protein; 0.11 mM protein into 0.026 mM DNA; ITC: 25 mM HEPES pH 7.0, 100 mM NaCl, 20 C, 0.25 mM protein into 0.026 mM DNA; EMSA: 25 mM HEPES pH 7.0, 100 mM NaCl, 5% glycerol, 6 pmol DNA in 6 ul, 4 C 20 min; settings: protein: recombinant; tags: C-terminal His; blunt
AtWRKY2-N = AtWRKY2-N (Arabidopsis, UniProt Q9FG77 270-332); assay: crystal structure; 2.4 A; zinc finger; ITC: 25 mM HEPES pH 7.0, 100 mM NaCl, 20 C, 0.25 mM protein into 0.026 mM DNA; EMSA: 25 mM HEPES pH 7.0, 100 mM NaCl, 5% glycerol, 6 pmol DNA in 6 ul, 4 C 20 min; settings: protein: recombinant; tags: C-terminal His; 5' overhang 1 nt at each end
AtWRKY33-N = AtWRKY33-N (Arabidopsis, UniProt Q8S8P5 185-242); assay: crystal structure; 3.0 A; zinc finger; ITC: 25 mM HEPES pH 7.0, 100 mM NaCl, 20 C, 0.25 mM protein into 0.026 mM DNA; EMSA: 25 mM HEPES pH 7.0, 100 mM NaCl, 5% glycerol, 6 pmol DNA in 6 ul, 4 C 20 min; settings: protein: recombinant; tags: C-terminal His; 5' overhang 1 nt at each end
AtWRKY1-N [2] = target: T1, AtWRKY1-N; assay: as above; settings: protein: recombinant; tags: C-terminal His; 5' overhang 1 nt at each end
AtWRKY1-N [3] = target: T1, AtWRKY1-N; assay: ITC; ITC: 25 mM HEPES pH 7.0, 100 mM NaCl, 20 C, 0.25 mM protein into 0.026 mM DNA; EMSA: 25 mM HEPES pH 7.0, 100 mM NaCl, 5% glycerol, 6 pmol DNA in 6 ul, 4 C 20 min; settings: protein: recombinant; tags: C-terminal His; blunt; remark: listed apart in the source
AtWRKY1-N K118A = AtWRKY1-N K118A (Arabidopsis, UniProt Q9SI37 108-169, K118A); assay: EMSA; ITC: 25 mM HEPES pH 7.0, 100 mM NaCl, 20 C, 0.25 mM protein into 0.026 mM DNA; EMSA: 25 mM HEPES pH 7.0, 100 mM NaCl, 5% glycerol, 6 pmol DNA in 6 ul, 4 C 20 min; settings: protein: recombinant; tags: C-terminal His; label: 5' Cy3 on strand 1; blunt
AtWRKY1-N Y119A = AtWRKY1-N Y119A (Arabidopsis, UniProt Q9SI37 108-169, Y119A); assay: as above; settings: protein: recombinant; tags: C-terminal His; label: 5' Cy3 on strand 1; blunt
AtWRKY1-N K144A = AtWRKY1-N K144A (Arabidopsis, UniProt Q9SI37 108-169, K144A); assay: as above; settings: protein: recombinant; tags: C-terminal His; label: 5' Cy3 on strand 1; blunt
AtWRKY1-N R117A = AtWRKY1-N R117A (Arabidopsis, UniProt Q9SI37 108-169, R117A); assay: as above; settings: protein: recombinant; tags: C-terminal His; label: 5' Cy3 on strand 1; blunt
AtWRKY1-N R135A = AtWRKY1-N R135A (Arabidopsis, UniProt Q9SI37 108-169, R135A); assay: as above; settings: protein: recombinant; tags: C-terminal His; label: 5' Cy3 on strand 1; blunt
AtWRKY1-N Q121A = AtWRKY1-N Q121A (Arabidopsis, UniProt Q9SI37 108-169, Q121A); assay: as above; settings: protein: recombinant; tags: C-terminal His; label: 5' Cy3 on strand 1; blunt
AtWRKY1-N Y133A = AtWRKY1-N Y133A (Arabidopsis, UniProt Q9SI37 108-169, Y133A); assay: as above; settings: protein: recombinant; tags: C-terminal His; label: 5' Cy3 on strand 1; blunt
AtWRKY1-N K122A = AtWRKY1-N K122A (Arabidopsis, UniProt Q9SI37 108-169, K122A); assay: as above; settings: protein: recombinant; tags: C-terminal His; label: 5' Cy3 on strand 1; blunt
AtWRKY1-N [4] = target: T1, AtWRKY1-N; assay: ITC; ITC: 25 mM HEPES pH 7.0, 100 mM NaCl, 20 C, 0.25 mM protein into 0.026 mM DNA; EMSA: 25 mM HEPES pH 7.0, 100 mM NaCl, 5% glycerol, 6 pmol DNA in 6 ul, 4 C 20 min; settings: protein: recombinant; tags: C-terminal His; blunt; remark: listed apart in the source

T1 sequence (Q9SI37 108-169): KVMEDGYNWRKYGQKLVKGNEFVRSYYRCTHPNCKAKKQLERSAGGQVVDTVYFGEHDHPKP
Sequence of AtWRKY1 101-339 (Q9SI37 other isoform, or with tags, fused parts or gaps): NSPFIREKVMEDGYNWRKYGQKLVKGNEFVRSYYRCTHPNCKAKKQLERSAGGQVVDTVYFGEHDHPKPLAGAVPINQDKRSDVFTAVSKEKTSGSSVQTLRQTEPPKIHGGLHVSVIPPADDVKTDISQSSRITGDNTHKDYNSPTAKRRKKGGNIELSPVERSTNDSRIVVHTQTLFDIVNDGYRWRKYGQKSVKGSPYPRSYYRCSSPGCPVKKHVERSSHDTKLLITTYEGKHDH
Sequence of AtWRKY1-C (Q9SI37 301-366): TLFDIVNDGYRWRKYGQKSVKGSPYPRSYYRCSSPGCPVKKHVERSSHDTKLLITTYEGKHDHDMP
Sequence of AtWRKY1-N Q121A (Q9SI37 108-169 Q121A): as the sequence (Q9SI37 108-169) above, with Q14A counted along it
Sequence of AtWRKY1-N K144A (Q9SI37 108-169 K144A): as the sequence (Q9SI37 108-169) above, with K37A counted along it
Sequence of AtWRKY2-N (Q9FG77 270-332): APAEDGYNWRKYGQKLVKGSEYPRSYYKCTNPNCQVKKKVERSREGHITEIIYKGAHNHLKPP
Sequence of AtWRKY1-N K122A (Q9SI37 108-169 K122A): as the sequence (Q9SI37 108-169) above, with K15A counted along it
Sequence of AtWRKY1-N R117A (Q9SI37 108-169 R117A): as the sequence (Q9SI37 108-169) above, with R10A counted along it
Sequence of AtWRKY1-N K118A (Q9SI37 108-169 K118A): as the sequence (Q9SI37 108-169) above, with K11A counted along it
Sequence of AtWRKY1-N R135A (Q9SI37 108-169 R135A): as the sequence (Q9SI37 108-169) above, with R28A counted along it
Sequence of AtWRKY1-N Y119A (Q9SI37 108-169 Y119A): as the sequence (Q9SI37 108-169) above, with Y12A counted along it
Sequence of AtWRKY33-N (Q8S8P5 185-242): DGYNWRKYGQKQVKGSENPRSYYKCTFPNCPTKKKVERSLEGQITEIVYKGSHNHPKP
Sequence of AtWRKY1-N Y133A (Q9SI37 108-169 Y133A): as the sequence (Q9SI37 108-169) above, with Y26A counted along it

B1: W-box DNA for ITC (dsDNA)
DNA 1: CGCCTTTGACCAGCGC
DNA 2: GCGCTGGTCAAAGGCG
Kd (AtWRKY1-N [1]): ~100 nM | Kd (AtWRKY1-C): 1300 nM | Kd (AtWRKY1 101-339): 500 nM

B2: W-box DNA for crystallization (15 bp) (dsDNA)
DNA 1: AGCCTTTGACCAGCG
DNA 2: TCGCTGGTCAAAGGC
binding result (AtWRKY2-N): binds | binding result (AtWRKY33-N): binds | binding result (AtWRKY1-N [2]): binds

B3: T6T7 to C6G7 (dsDNA)
DNA 1: CGCCTCGGACCAGCGC
DNA 2: GCGCTGGTCCGAGGCG
binding signal (AtWRKY1-N [3]): 4.5 fold decrease in affinity vs W-box

B4: W-box DNA for EMSA (dsDNA)
DNA 1: CGCCTTTGACCAGCGC
DNA 2: GCGCTGGTCAAAGGCG
binding result (AtWRKY1-N K118A): binds | binding result (AtWRKY1-N Y119A): binds | binding result (AtWRKY1-N K144A): no binding | binding result (AtWRKY1-N R117A): binds | binding result (AtWRKY1-N R135A): no binding | binding result (AtWRKY1-N Q121A): no binding | binding result (AtWRKY1-N Y133A): no binding | binding result (AtWRKY1-N K122A): no binding

B5: T8' to A8' (dsDNA)
DNA 1: CGCCTTTGTCCAGCGC
DNA 2: GCGCTGGACAAAGGCG
binding signal (AtWRKY1-N [3]): 12 fold decrease in affinity vs W-box

B6: G7'C9' to A7'A9' (dsDNA)
DNA 1: CGCCTTTTATCAGCGC
DNA 2: GCGCTGATAAAAGGCG
Kd (AtWRKY1-N [1]): 7600 nM

B7: G6' to T6' (dsDNA)
DNA 1: GCGCTTGTCAAAGGCG
DNA 2: CGCCTTTGACAAGCGC
binding signal (AtWRKY1-N [4]): 2.5 fold decrease in affinity vs W-box
